Laboratory results taken from US20260224618A1 (ORICELL THERAPEUTICS, published 2026).

What was measured:
Human MSLN-His antigen [1] = target: T1, Human MSLN-His antigen (human, UniProt Q13421 296-580, limits assumed); test: ELISA, plate coated with 2 ug/ml MSLN-His, VHH-Fc diluted 2.5-fold from 200 nM, anti-human IgG Fc HRP, OD450
T1 construct: also called MSLN-his protein; human MSLN protein; not shown: His tag
Procedure: (§1) A high-absorption 384-well plate was coated with 2 μg/ml of MSLN-His […], and left standing at 4° C. overnight. The plate was washed three times with 1×PBST, and blocked with 5% of skimmed milk at room temperature for 2 h. During the blocking, the antibody MSLN-VHH was diluted 2.5-fold starting from a concentration of 200 nM for a total of 11 gradients. At the end of blocking, the plate was washed three times with 1×PT, into which were added corresponding diluted primary antibodies at 30 μl/well and incubated with shaking at room temperature for 1 h. The plate was washed three times with 1×PBST, into which were then added secondary antibodies Anti-human IgG Fc Antibody HRP (abcam, Item No. ab99759) and incubated at room temperature for 30-60 min. The plate was washed seven times with 1×PBST, into which was then added a TMB developer, and 2M phosphoric acid was added 3-5 min later to stop the reaction. The absorbance was read at a wavelength of 450 nm.

Human MSLN-His antigen [2] = target: T1, Human MSLN-His antigen; test: BLI (ForteBio), AHC probe, nanobody at 100 nM, human MSLN-His 2-fold diluted from 100 nM
Procedure: MSLN nanobodies with flow cytometric binding activity were diluted to 100 nM and added into a 384-well plate. Human MSLN-His antigens were 2-fold diluted to 100 nM for a total of 7 gradients, and added into a 384-well plate. An AHC probe (Sartorius, Item No. 18-5060) was used, with the binding time set to 180 sec, the dissociation time to 360 sec, the baseline to 60 sec, and the regeneration cycle to three times, each for 5 sec. After then, the binding-dissociation curve was fitted using software to calculate the affinity of the antibodies.

Human MSLN-His antigen [3] = target: T1, Human MSLN-His antigen; test: ELISA, plate coated with 2 ug/ml MSLN-His, antibody diluted 2.5-fold from 200 nM, anti-human IgG Fc HRP, OD450
Procedure: as §1

T1 sequence (Q13421 other isoform, or with tags, fused parts or gaps limits assumed): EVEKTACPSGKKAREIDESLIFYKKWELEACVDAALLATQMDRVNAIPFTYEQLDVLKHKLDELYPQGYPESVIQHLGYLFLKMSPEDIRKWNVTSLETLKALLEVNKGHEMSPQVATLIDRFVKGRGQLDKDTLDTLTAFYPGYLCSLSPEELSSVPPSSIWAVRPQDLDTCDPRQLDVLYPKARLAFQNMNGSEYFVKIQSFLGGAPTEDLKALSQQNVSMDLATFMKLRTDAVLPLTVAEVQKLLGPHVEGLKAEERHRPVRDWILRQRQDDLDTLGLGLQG

Row | EC50 (read off the curve) (Human MSLN-His antigen [1]) | Kd (Human MSLN-His antigen [2]) | EC50 (read off the curve) (Human MSLN-His antigen [3]) | Binder
1 | ~10 nM | – | – | MSLN50 VHH-Fc fusion protein (Fc fusion, Tested as bivalent VHH-Fc expressed in EXPI293; also called MSLN-VHH; MSLN nanobody 50; not shown: Fc of the VHH-Fc fusion) QVQLQESGGGLVQPGGSLRLSCAASGSISKIAIMGWYRQPPGNERELIAIANMTGTGVYRDTVKGRFTIRRDNAKNMVYLQMNNLKSEDTGVYYCHARQLGVGSFESWGQGTQVTVSS
2 | ~0.7 nM | – | – | MSLN45 VHH-Fc fusion protein (Fc fusion, Tested as bivalent VHH-Fc expressed in EXPI293 and detected with anti-human IgG Fc; also called MSLN-VHH; MSLN nanobody 45; not shown: Fc of the VHH-Fc fusion) QVQLQESGGGLVQPGGSLRLSCAASGSIFSINAMGWYRQPPGKQRELVAATSWGGRTNYADSVEGRFTISRDNAKNTVYLQMNSLKPEDTAVYYCKLWDGSSWDIYWGQGTQVTVSS
3 | ~0.8 nM | – | – | MSLN51 VHH-Fc fusion protein (Fc fusion, Tested as bivalent VHH-Fc expressed in EXPI293; also called MSLN-VHH; MSLN nanobody 51; not shown: Fc of the VHH-Fc fusion) QVQLQESGGGLVQTGGSLRLSCAASGSIFSINAMGWYRQPPGKQRELVAATSWGGRTNYADSVEGRFTISRDNAKNTVYLQMNSLKPEDTAVYYCKLWDGSSWDIYWGQGTQVTVSS
4 | ~0.5 nM | – | – | MSLN55 VHH-Fc fusion protein (Fc fusion, Tested as bivalent VHH-Fc expressed in EXPI293; also called MSLN-VHH; MSLN nanobody 55; not shown: Fc of the VHH-Fc fusion) QVQLQESGGGLVQSGGSLKLSCAASGNIASINAMGWYRQPPGKQRELVAATSWGGRTNYADSVEGRFTISRDNAKNTVYLQMNSLKPEDTAVYYCKLWDGSSWDIYWGQGTQVTVSS
5 | ~0.5 nM | – | – | MSLN59 VHH-Fc fusion protein (Fc fusion, Tested as bivalent VHH-Fc expressed in EXPI293; also called MSLN-VHH; MSLN nanobody 59; not shown: Fc of the VHH-Fc fusion) QVQLQESGGGLVQPGGSLRLSCTASKRIDSINAMGWYRQPPGKQRELVAATSWGGRTNYADSVEGRFTISRDNAKNTVYLQMNSLKPEDTAVYYCKLWDGSSWDIYWGQGTQVTVSS
6 | ~0.6 nM | – | – | MSLN57 VHH-Fc fusion protein (Fc fusion, Tested as bivalent VHH-Fc expressed in EXPI293; also called MSLN-VHH; MSLN nanobody 57; not shown: Fc of the VHH-Fc fusion) QVQLQESGGGMVQPGGSLRLSCAASGSIFSINAMGWYRQPPGKQRELVAATSWGGRTNYADSVEGRFTISRDNAKNTVYLQMNSLKPEDTAVYYCKLWDGSSWDIYWGQGTQVTVSS
7 | ~0.8 nM | – | – | MSLN47 VHH-Fc fusion protein (Fc fusion, Tested as bivalent VHH-Fc expressed in EXPI293; also called MSLN-VHH; MSLN nanobody 47; not shown: Fc of the VHH-Fc fusion) QVQLQESGGGLVQAGGSLRLSCAASGSIFSINAMGWYRQPPGKQRELVAATSWGGRTNYADSVEGRFTISRDNAKNTVYLQMNSLKPEDTAVYYCKLWDGSSWDIYWGQGTQVTVSS
8 | ~0.4 nM | – | – | MSLN58 VHH-Fc fusion protein (Fc fusion, Tested as bivalent VHH-Fc expressed in EXPI293; also called MSLN-VHH; MSLN nanobody 58; not shown: Fc of the VHH-Fc fusion) QVQLQESGGGTVQPGGSLRLSCEAVGDSVSINAMGWYRQPPGKQRELVAATSWGGRTNYADSVEGRFTISRDNAKNTVYLQMNSLKPEDTAVYYCKLWDGSSWDIYWGQGTQVTVSS
9 | ~1 nM | 2.15 nM | – | MSLN46 VHH-Fc fusion protein (Fc fusion, Tested as bivalent VHH-Fc expressed in EXPI293; also called MSLN-VHH; MSLN nanobody 46; not shown: Fc of the VHH-Fc fusion) QVQLQESGGGLVQAGGSLRLSCEASGHTDSYYPKAWFRQAPGKEREFVASIGWGGRMTAYADSVKGRFTVSRTYAKNTVYLQMNSLKPEDTAVYYCAAGIGWAPTADSGEYDYWGQGTQVTVSS
10 | ~1 nM | 2.58 nM | – | MSLN52 VHH-Fc fusion protein (Fc fusion, Tested as bivalent VHH-Fc expressed in EXPI293; also called MSLN-VHH; MSLN nanobody 52; not shown: Fc of the VHH-Fc fusion) QVQLQESGGGLVQAGGSLSLSCAASGHTDSYYPKAWFRQAPGKEREFVASIGWGGRMTAYADSVKGRFTVSRTYAKNTVYLQMNSLKPEDTAVYYCAAGIGWAPTADSGEYDYWGQGTQVTVSS
11 | ~0.8 nM | 1.41 nM | – | MSLN53 VHH-Fc fusion protein (Fc fusion, Tested as bivalent VHH-Fc expressed in EXPI293; also called MLSN-53; MSLN-VHH; not shown: Fc of the VHH-Fc fusion) QVQLQESGGGLVQPGGSLTLSCEASGHTDSYYPKAWFRQAPGKEREFVASIGWGGRMTAYADSVKGRFTVSRTYAKNTVYLQMNSLKPEDTAVYYCAAGIGWAPTADSGEYDYWGQGTQVTVSS
12 | – | – | ~0.8 nM | positive control antibody P4 (antibody, V domains shown, an AHC probe was used in the ForteBio assay; also called positive antibody P4) VH: QVQLQQSGPGLVTPSQTLSLTCAISGDSVSSNSATWNWIRQSPSRGLEWLGRTYYRSKWYNDYAVSVKSRMSINPDTSKNQFSLQLNSVTPEDTAVYYCARGMMTYYYGMDVWGQGTTVTVSS VL: QPVLTQSSSLSASPGASASLTCTLRSGINVGPYRIYWYQQKPGSPPQYLLNYKSDSDKQQGSGVPSRFSGSKDASANAGVLLISGLRSEDEADYYCMIWHSSAAVFGGGTQLTVLS
13 | ~7 nM | – | – | MSLN48 VHH-Fc fusion protein (Fc fusion, Tested as bivalent VHH-Fc expressed in EXPI293; also called MSLN-VHH; MSLN nanobody 48; not shown: Fc of the VHH-Fc fusion) QVQLQESGGGLVQPGGSLRLSCAASESIFSNYSASWYRQAPGKQRELVATIARTGSAFHLGSVKGRFTISRDNAKRTVYLQMNSLLPEDTAVYYCNVWDSWGQGTQVTVSS
